From paper PMC5736220, “Using thermal scanning assays to test protein-protein interactions of inner-ear cadherins” (PLoS ONE, 2017)
Substitutions are numbered along the chain they refer to. In names and notes the source's numbering stands.

Tests used:
Conditions in all cases: both partners purified
[1] = target: T1, protocadherin-15 EC1+2 H91R, His-tagged (mouse, UniProt Q99PJ1 27-259, H91R); experiment: thermal scanning (thermal stability shift assay with SYPRO orange); pcdh15 fixed at 0.1 mg/mL (~4 μM), cdh23 0.1 to 0.5 mg/mL (~4 to 20 μM; cdh23:pcdh15 1:1 to 5:1); SEC buffer (20 mM Tris-HCl pH 7.5, 150 mM KCl, 50 mM NaCl, 2 mM CaCl2); 10 to 95°C in 0.2°C steps, 5 s equilibration; read-out: shift of the Tm of pcdh15 (ΔTm)
T1 construct: Protocadherin-15 (PCDH15), mouse, N-terminal fragment EC1+2; Mutant of m12 made with QuikChange; also called pcdh15(H91R)

[2] = target: T2, protocadherin-15 EC1+2, wild type, His-tagged (mouse, UniProt Q99PJ1 27-259); experiment: as above
T2 construct: Protocadherin-15 (PCDH15), mouse, N-terminal fragment EC1+2; pET21a, NdeI/XhoI; predicted molecular weight 27.5 kDa; Held on the Ni-NTA chip by its His tag in SPR; also called pcdh15; pcdh15(WT); not shown: His6, C-terminal, kept

[3] = target: T2, protocadherin-15 EC1+2, wild type, …; experiment: SEC; analytical, Superdex 75 3.2/3.0, SEC buffer, 4°C, 100 μL loop, 0.05 mL/min; complex read from a decrease in elution volume of the mixture
[4] = target: T3, protocadherin-15 EC1+2 G16D, His-tagged (mouse, UniProt Q99PJ1 27-259, G16D); experiment: thermal scanning (thermal stability shift assay with SYPRO orange); pcdh15 fixed at 0.1 mg/mL (~4 μM), cdh23 0.1 to 0.5 mg/mL (~4 to 20 μM; cdh23:pcdh15 1:1 to 5:1); SEC buffer (20 mM Tris-HCl pH 7.5, 150 mM KCl, 50 mM NaCl, 2 mM CaCl2); 10 to 95°C in 0.2°C steps, 5 s equilibration; read-out: shift of the Tm of pcdh15 (ΔTm)
T3 construct: Protocadherin-15 (PCDH15), mouse, N-terminal fragment EC1+2; Mutant of m12 made with QuikChange; Held on the Ni-NTA chip by its His tag in SPR; also called pcdh15(G16D); not shown: His6, C-terminal, kept

B1: cadherin-23 EC1+2 T79E, His-tagged (domain or fragment, mouse)
chain: QVNRLPFFTNHFFDTYLLISEDTPVGSSVTQLLARDMDNDPLVFGVSGEEASRFFAVEPDTGVVWLRQPLDRETKSEFEVEFSVSDHQGVITRKVNIQVGDVNDNAPTFHNQPYSVRIPENTPVGTPIFIVNATDPDLGAGGSVLYSFQPPSPFFAIDSARGIVTVIQELDYEVTQAYQLTVNATDQDKTRPLSTLANLAIIITD
notes: Cadherin-23 (CDH23), mouse, N-terminal fragment EC1+2; Mutant of m1 made with QuikChange; also called cdh23(T79E)
- ΔTm of pcdh15 at cdh23:pcdh15 1:1 [1]: 2.1 ± 0.4 °C
- ΔTm of pcdh15 at cdh23:pcdh15 2:1 [1]: 4.1 ± 0.5 °C
- ΔTm of pcdh15 at cdh23:pcdh15 3:1 [1]: 5.3 ± 1.8 °C
- ΔTm of pcdh15 at cdh23:pcdh15 4:1 [1]: 6 ± 1.8 °C
- ΔTm of pcdh15 at cdh23:pcdh15 5:1 [1]: 7.3 ± 1.3 °C

B2: cadherin-23 EC1+2 S76V, His-tagged (domain or fragment, mouse)
chain: B1 chain with S76V, E79T
notes: Cadherin-23 (CDH23), mouse, N-terminal fragment EC1+2; Mutant of m1 made with QuikChange; also called cdh23(S76V)
- ΔTm of pcdh15 at cdh23:pcdh15 1:1 [2]: 1.7 ± 1 °C
- ΔTm of pcdh15 at cdh23:pcdh15 2:1 [2]: 3 ± 1.7 °C
- ΔTm of pcdh15 at cdh23:pcdh15 3:1 [2]: 4 ± 1.5 °C
- ΔTm of pcdh15 at cdh23:pcdh15 4:1 [2]: 5.1 ± 1.8 °C
- ΔTm of pcdh15 at cdh23:pcdh15 5:1 [2]: 5.4 ± 1.9 °C

B3: cadherin-23 EC1+2 T190W, His-tagged (domain or fragment, mouse)
chain: B1 chain with E79T, T190W
notes: Cadherin-23 (CDH23), mouse, N-terminal fragment EC1+2; Mutant of m1 made with QuikChange; also called cdh23(T190W)
- binding result [3]: binds

B4: cadherin-23 EC1+2 F7E, His-tagged (domain or fragment, mouse)
chain: B1 chain with F7E, E79T
notes: Cadherin-23 (CDH23), mouse, N-terminal fragment EC1+2; Mutant of m1 made with QuikChange; also called cdh23(F7E)
- ΔTm of pcdh15 at cdh23:pcdh15 1:1 [2]: 1.7 ± 0.6 °C
- ΔTm of pcdh15 at cdh23:pcdh15 2:1 [2]: 4.8 ± 0.6 °C
- ΔTm of pcdh15 at cdh23:pcdh15 3:1 [2]: 5.5 ± 0.3 °C
- ΔTm of pcdh15 at cdh23:pcdh15 4:1 [2]: 5.9 ± 0.2 °C
- ΔTm of pcdh15 at cdh23:pcdh15 5:1 [2]: 7 ± 0.2 °C

B5: cadherin-23 EC1+2 T15E, His-tagged (domain or fragment, mouse)
chain: B1 chain with T15E, E79T
notes: Cadherin-23 (CDH23), mouse, N-terminal fragment EC1+2; Mutant of m1 made with QuikChange; also called cdh23(T15E)
- ΔTm of pcdh15 at cdh23:pcdh15 1:1 [2]: 2.3 ± 0.4 °C
- ΔTm of pcdh15 at cdh23:pcdh15 2:1 [2]: 3.9 °C
- ΔTm of pcdh15 at cdh23:pcdh15 3:1 [2]: 4.8 ± 0.1 °C
- ΔTm of pcdh15 at cdh23:pcdh15 4:1 [2]: 6 ± 0.5 °C
- ΔTm of pcdh15 at cdh23:pcdh15 5:1 [2]: 6.7 ± 0.6 °C
- ΔTm of pcdh15 at cdh23:pcdh15 1:1 [4]: 2.4 ± 0.4 °C
- ΔTm of pcdh15 at cdh23:pcdh15 2:1 [4]: 4.5 ± 0.8 °C
- ΔTm of pcdh15 at cdh23:pcdh15 3:1 [4]: 5.5 ± 0.7 °C
- ΔTm of pcdh15 at cdh23:pcdh15 4:1 [4]: 6.5 ± 1.2 °C
- ΔTm of pcdh15 at cdh23:pcdh15 5:1 [4]: 7.2 ± 1.1 °C
